Results published in patent publication US20240101959A1, “USE OF IL-2R-BETA-GAMMA AGONIST PEPTIDES IN CELL MANUFACTURING” (MEDIKINE, INC., priority 2022, published 2024).
No end group written: not given here.

T1: hu-IL-2Rβ subunit (human, UniProt P14784 27-240, limits assumed)
T1 construct: also called human interleukin-2 receptor subunit β; CD122
T1 sequence (looked up): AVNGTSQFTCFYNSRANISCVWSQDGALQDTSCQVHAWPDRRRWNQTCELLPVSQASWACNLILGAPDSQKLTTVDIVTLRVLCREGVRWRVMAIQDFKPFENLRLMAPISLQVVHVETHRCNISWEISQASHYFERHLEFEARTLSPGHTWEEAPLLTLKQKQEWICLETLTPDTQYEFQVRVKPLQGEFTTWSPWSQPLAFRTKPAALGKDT

B1: SEQ ID NO 527 (peptide)
peptide: ELLVDCFKVKVGELCDLFFG
B2: SEQ ID NO 532 (peptide)
peptide: AHFYDCFWAKAGELCDLWPS
B3: SEQ ID NO 513 (peptide)
peptide: FGDDFCRFIPLFEMCTTDVE
B4: SEQ ID NO 495 (peptide)
peptide: QITDSGWYPCWVAKVGELCDMD
B5: SEQ ID NO 537 (peptide)
peptide: HGILDCYFAKVGELCELFDW
B6: SEQ ID NO 519 (peptide)
peptide: SMDQDCYFAQVGELCVLFNQ
B7: SEQ ID NO 538 (peptide)
peptide: QFVKDCFLAQVGDLCELFLW
B8: SEQ ID NO 492 (peptide)
peptide: RYVPDCLKAQVGDLCDFFAW
B9: SEQ ID NO 535 (peptide)
peptide: THVHDCFLAKVGDLCDLFIV
B10: SEQ ID NO 496 (peptide)
peptide: YRWWYPCDIAQVGELCDLDYLL
B11: SEQ ID NO 546 (peptide)
peptide: SYLCWLDHWGVICEED
modifications: not fully specified (bridges); cysteine pairing not given here
B12: SEQ ID NO 528 (peptide)
peptide: RYVHDCFIAQVGDLCDLFLH
B13: SEQ ID NO 114 (peptide)
peptide: QDRRSPWYPCWMAKLGELCDLA
B14: SEQ ID NO 534 (peptide)
peptide: WGKLVRDCFLAKVGDLCDLFLW
B15: SEQ ID NO 525 (peptide)
peptide: RLLRDCFLAKVGDLCELFVW
B16: SEQ ID NO 514 (peptide)
peptide: LVYYDCYMAQVGELCDLPSL
B17: SEQ ID NO 509 (peptide)
peptide: TPWYDCYIANVGDLCDFASA
B18: SEQ ID NO 113 (peptide)
peptide: WGRNRSWYPCWMAQLGELCDLE
B19: SEQ ID NO 116 (peptide)
peptide: SEQWWPCWIARLGELCDLDRELSE
B20: SEQ ID NO 539 (peptide)
peptide: DWLPDCYFANVGDLCSLFGS
B21: SEQ ID NO 112 (peptide)
peptide: ERRPDTWFPCWRALVGELCDLE
B22: SEQ ID NO 501 (peptide)
peptide: HRGWVGWYPCEYALPGQLCDLE
B23: SEQ ID NO 524 (peptide)
peptide: RLASDWWDCYIAKVGELCDF
modifications: not fully specified (bridges); cysteine pairing not given here
B24: SEQ ID NO 505 (peptide)
peptide: LPFQDCYIAQVGELCDLPGT
B25: SEQ ID NO 488 (peptide)
peptide: WYPCWLAQVGELCDRE
B26: SEQ ID NO 536 (peptide)
peptide: HWVRDCFLAKVGELCDLFLW
B27: SEQ ID NO 508 (peptide)
peptide: VVCYACDIAHVGELCDLTCR
B28: SEQ ID NO 526 (peptide)
peptide: QWFHNCFLARVGDTCDLFLW
B29: SEQ ID NO 531 (peptide)
peptide: RYLYDCFLALVGDLCVKFHQ
B30: SEQ ID NO 541 (peptide)
peptide: NWLPDCLFANVGELCDIFPW
B31: SEQ ID NO 506 (peptide)
peptide: RWMFDCLFARVGELCDIRPW
B32: SEQ ID NO 507 (peptide)
peptide: GGYYDCLIAEVGELCDMPGQ
B33: SEQ ID NO 499 (peptide)
peptide: SRVWHPCWLARVGELCDLEVSD
B34: SEQ ID NO 490 (peptide)
peptide: RAWWWPCELAQVGELCDLEPSS
B35: SEQ ID NO 504 (peptide)
peptide: DGWWPCWIAQVGELCDLEDPV
modifications: not fully specified (bridges); cysteine pairing not given here
B36: SEQ ID NO 523 (peptide)
peptide: SWLSDLQDCYIAQVGDLCQI
B37: SEQ ID NO 529 (peptide)
peptide: KWVHDCFLAKVGDVCDLFVV
B38: SEQ ID NO 517 (peptide)
peptide: WEWYDCLMAQVGELCDFEGN
B39: SEQ ID NO 487 (peptide)
peptide: KGSSWFPCYFAQVGDLCDLY
B40: SEQ ID NO 545 (peptide)
peptide: EFFHDCYVARVGELCDLFGW
B41: SEQ ID NO 493 (peptide)
peptide: WWPCYLAQIGELCDLV
B42: SEQ ID NO 512 (peptide)
peptide: GRYPDCYIAHVGELCEFYDG
modifications: not fully specified (bridges); cysteine pairing not given here
B43: SEQ ID NO 520 (peptide)
peptide: GGYYDCLIAEVGELCDIYGR
B44: SEQ ID NO 494 (peptide)
peptide: WYPCWMAKVGELCDME
B45: SEQ ID NO 500 (peptide)
peptide: WEHEFTWYPCWIAQVGELCDMD
B46: SEQ ID NO 515 (peptide)
peptide: VSRYDCYIAKVGELCDFFEF
B47: SEQ ID NO 503 (peptide)
peptide: RVRRHSWWPCEIAVVGELCDLE
modifications: not fully specified (bridges); cysteine pairing not given here
B48: SEQ ID NO 511 (peptide)
peptide: WQIFDCYLAQVGELCDLQDT
B49: SEQ ID NO 544 (peptide)
peptide: YSFKDCYFAKVGELCELFLW
B50: SEQ ID NO 521 (peptide)
peptide: SNWHDCLFAQVGELCDLPGS
modifications: not fully specified (bridges); cysteine pairing not given here
B51: SEQ ID NO 486 (peptide)
peptide: WWPCEWARIGELCDLE
B52: SEQ ID NO 522 (peptide)
peptide: YDCYIAQVGELCDI
B53: SEQ ID NO 111 (peptide)
peptide: WLPCWLAKLGELCDLEWLPCW
B54: SEQ ID NO 542 (peptide)
peptide: EIFKDCLFANVGELCEIFPS
B55: SEQ ID NO 491 (peptide)
peptide: WYPCWLAKVGELCDQE
B56: SEQ ID NO 530 (peptide)
peptide: RSLVDCFLVKVGDLCDFFNW
B57: SEQ ID NO 543 (peptide)
peptide: NWFHDCFLARVGDLCDLFLD
B58: SEQ ID NO 516 (peptide)
peptide: VTVQDCYFARVGDLCDLFSP
B59: SEQ ID NO 498 (peptide)
peptide: WLPCWIAKIGDLCDLD
B60: SEQ ID NO 115 (peptide)
peptide: TRRWYPCYLAKLGELCDLFEGGTR
B61: SEQ ID NO 518 (peptide)
peptide: WAFYDCRNAQVGDFCDLWEF
B62: SEQ ID NO 510 (peptide)
peptide: LESLDCFFARIGDLCEIWDV
B63: SEQ ID NO 540 (peptide)
peptide: HWFLDCFLANVGDLCDFFGN
B64: SEQ ID NO 489 (peptide)
peptide: RGVYFPCWLAKVGDLCDSDEF

target: T1, hu-IL-2Rβ subunit; assay: phage ELISA competition assay

| IC50 | Binder |
| --- | --- |
| < 100 µM | B1 |
| < 100 µM | B2 |
| < 100 µM | B3 |
| < 100 µM | B4 |
| < 100 µM | B5 |
| < 100 µM | B6 |
| < 100 µM | B7 |
| < 100 µM | B8 |
| < 100 µM | B9 |
| < 100 µM | B10 |
| < 100 µM | B11 |
| < 100 µM | B12 |
| < 100 µM | B13 |
| < 100 µM | B14 |
| < 100 µM | B15 |
| < 100 µM | B16 |
| < 100 µM | B17 |
| < 100 µM | B18 |
| < 100 µM | B19 |
| < 100 µM | B20 |
| < 100 µM | B21 |
| < 100 µM | B22 |

| IC50 | Binder |
| --- | --- |
| < 100 µM | B23 |
| < 100 µM | B24 |
| < 100 µM | B25 |
| < 100 µM | B26 |
| < 100 µM | B27 |
| < 100 µM | B28 |
| < 100 µM | B29 |
| < 100 µM | B30 |
| < 100 µM | B31 |
| < 100 µM | B32 |
| < 100 µM | B33 |
| < 100 µM | B34 |
| < 100 µM | B35 |
| < 100 µM | B36 |
| < 100 µM | B37 |
| < 100 µM | B38 |
| < 100 µM | B39 |
| < 100 µM | B40 |
| < 100 µM | B41 |
| < 100 µM | B42 |
| < 100 µM | B43 |
| < 100 µM | B44 |

| IC50 | Binder |
| --- | --- |
| < 100 µM | B45 |
| < 100 µM | B46 |
| < 100 µM | B47 |
| < 100 µM | B48 |
| < 100 µM | B49 |
| < 100 µM | B50 |
| < 100 µM | B51 |
| < 100 µM | B52 |
| < 100 µM | B53 |
| < 100 µM | B54 |
| < 100 µM | B55 |
| < 100 µM | B56 |
| < 100 µM | B57 |
| < 100 µM | B58 |
| < 100 µM | B59 |
| < 100 µM | B60 |
| < 100 µM | B61 |
| < 100 µM | B62 |
| < 100 µM | B63 |
| < 100 µM | B64 |
